# Assay: yeast display, Sf9 membrane polyspecificity reagent, FACS + sequencing; frameworks hold sequencing errors
# Outline: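 Polyreactivity labels are assigned by the sorting gate from which each nanobody was recovered. The gates were low and high (top ~1%), set on anti-HA fluorescence for expression and streptavidin fluorescence for reagent binding. Before sorting, galactose-induced (36–48 hours) yeast display cells were stained for 1 hour at 4 °C with 10% biotinylated, detergent-solubilized Sf9 membrane reagent.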
row,Sequence,polyreactivity (PSR sort gate)
1,QVQLVESGGGLVQAGGSLRLSCPASGRTFSSYAMGWYRPAPGKERELVAAISRRGGSTYYADSVKGRFTISRDNAKNTVYLKMNSLKPEDTAVYYCAADVYKQYGYYYWGQGSQVTVSS,high polyreactivity
2,QVQLVESGGGLVQAGGSLRLSCPASGRTMGGNAMGWYRQAPGKEREFVARISTRGVRKYYADSVKGRFTISRDNAKNTVYLQMNSLKPEDTAVYYCAKHVSYGHIGAYPDRDSWGQGTQVTVSS,low polyreactivity
3,QVQLVESGGGLVQAGGSLRLSCPASGSIFDFYAMGWYRQAPGKERELVAAIDDIDDSTYYADSVKGRFTISRDNAKNTVYLQMNSLKPEDTAVYDCAAELRPGYRSSYGLIYDYWGQGTQVTVSS,low polyreactivity
4,QVQLVESGGGLVQAGGSLRLSCPASGSIFRSYAMGWYRPAPGKERELVASISRRGGSSYYADSVKGRFTISRDNAKNTVYLQMNSLKPEDTAVYYCAAVRYNSRGSTTPSEMYYWGQGTQVTVSS,low polyreactivity
5,QVQLVESGGGLVQAGGSLRLSCPASGSIFSLNAMGWSRQAPGKERELVAASGGGSTYYADSVKGRFTISRDNAKNTVYLQMNSLKPEDTAVYYCAARVLTDELDYWGQGTQVTVSS,low polyreactivity
6,QVQLVESGGGLVQAGGSLRLSCPASGSIFYSYAMGWYRQAPGKERELVAAISWDASTYYADSVKGRFTISRDNAKNTVYLQMNSLKPEYTAVYYCNAVYRVWYAEWSTVGSPHDYWGQGTQVTVSS,low polyreactivity
7,QVQLVESGGGLVQAGGSLRLSCPASGSTFRYYAMAWYRQAPGKERELVAGISSSGGSTYYADSVKGRFTISRDNAKNTVYLQMNSLKPEDTAVYYCNAARGTSRSLAVFADYDYWGQGTQVTVSS,high polyreactivity
8,QVQLVESGGGLVQAGGSLRLSCPASGSTYLIYAMGWYRQAPGKERELVARITSTGSTYYADSVKRRFTISRDNAMNTVYLHMNSLKPEDTAVYYCNAAGYQYYWHYYWGQGTQVTVSS,low polyreactivity
9,QVQLVESGGGLVQAGGSLRLSCPATGSTFGSYAMAWYRPAPGKERELVADISSRGASTYYADSVKGRFTISRDNAKNTVYLQMNSLKPEDTAVYYCARDVYIWYGYGYFPEYEYWGQGTQVTVSS,low polyreactivity
10,QVQLVESGGGLVQAGGSLRLSCSASGFTFEEYAMGWYRQAPGKERELVAAIDYTVGSTYYADSVKGRFTISRDNAKNTVYLQINSLKPEDTAVYYCNVDLSYSFNSAYGYWGQGTQVSVSS,low polyreactivity
11,QVQLVESGGGLVQAGGSLRLSCSASGFTIYYYTMGWYRQAPGKERELVAAITRSGGRTYYADSVKGRFTISRDNSKNTVYLQMISLKPEDPAVYYCAASTYNNFWYLGYGYWGQGTQVTVSS,high polyreactivity
12,QVQLVESGGGLVQAGGSLRLSCSASGGTFRYYTMVWYRKAPGKERELVAAITRGGRTYYADSVKGRFTISRDNAKNTVYLQMNSLKPEDTAVYYCAAVRPRSPVSYENDYWGQGTQVTVSS,high polyreactivity
13,QVQLVESGGGLVQAGGSLRLSCSASGLIFRYYAMGWYRQAPGKEREFVAAISGRGASTYYADSVKGRFTISRDNSKNTVYLQMNSLKPEDTAVYYCATYFPSAVVAFHMEYWGQGTQVTVSS,low polyreactivity
14,QVQLVESGGGLVQAGGSLRLSCSASGLTLAPNAMGWYRQAPGKERELVAAITRSGGDTYYADSVKGRFTISRDNAKNTVYLQMNSLKPEDTAVYYCAADYWFRYGTYEYWGQGTQVTVSS,high polyreactivity
15,QVQLVESGGGLVQAGGSLRLSCSASGRTFKVYAMGWYRQAPGKERELVAAISYSGAGTRYADSVKGRFTISRDNAKNTVYLQMNSLKPEDTAVYYCNTDAWARVKRYEYWGQGTQVTVSS,low polyreactivity
16,QVQLVESGGGLVQAGGSLRLSCSASGRTFYSYAMGWYRQPRGKERELVATIRRGGRTNYADSVKGRFTISRDNAKNTVYLLMNSLKPEDTAVYYCAAEDYRSLVTSTYDYWGQGTQVAVSS,low polyreactivity
17,QVQLVESGGGLVQAGGSLRLSCSASGSIFDGYAMGWYRQAPGKEREIVAAISKGGTRTYYADSVMGRFTISRDNAKNTVYLQMNSLKPEDTAFYYCNAYYRREPDDGDYDYWGQGSQVTVSS,high polyreactivity
18,QVQLVESGGGLVQAGGSLRLSCSASGSIFSGNTMGWYRQAPGKERELVAAISGGGSTNYADSVKGRFTISRDNAKNTVYLQMNSLKPEDTAVYYCAKDLSLGASRMDYWGQGTQVTVSS,low polyreactivity
19,QVQLVESGGGLVQAGGSLRLSCSASGSIIGHNAMGWYRQAPGKEREIVAAITWRGSNTYYADSVKGRFTISRDNAKNTVYLQMNSLKPEDTAVYYCAAEFYYRTQWYYYWGQGTQVTVSS,high polyreactivity
20,QVQLVESGGGLVQAGGSLRLSCSASGSTFEGYAMGWYRQAPGKERELVAAITSTGSTNYADSVKGRFTISRDNAKNTVYLQMNSLKPEDTAVYYCAGYPGRVYYFLGHDYWVQGTQVTVSS,low polyreactivity

row,Sequence,polyreactivity (PSR sort gate)
1,QVQLVESGGGLVQAGGSLRLSCSASGSTFESNAMGWYRQAPGKERELVASISGSGGSTFYADSVKGRFTISRDNAKNTVYLQMISLKPEDTAVYYCAAYKEPYYEEYGYWGQGTQVTVSS,low polyreactivity
2,QVQLVESGGGLVQAGGSLRLSCSASGSTFGRNSMGRYRQAPGKEREVVAAISWRSTRTYYADSVKGRFTISRDHAKNTVDLQMNSLKPEDNAGYYCAVYYFYPSTNCYHYDYWGQGTQVTVSS,high polyreactivity
3,QVQLVESGGGLVQAGGSLRLSCSASGSTFGRYAMGWYRQAPGKERELVAAISARGGSTYYADSVKGRFTISRDNAKNTVYLQMNSLKPEDTAVYYCNVDYLLHGGRFDYWGQGTQVTVSS,high polyreactivity
4,QVQLVESGGGLVQAGGSLRLSCSASGSTFRQYAMGWYRQAPGKERELVAAITWRGDNTYYADSVKGRFTISRDNAKNTVYLQMNSLKPEDTADYYCGARWSYRLYWGYGYWGQGTQVTVSS,low polyreactivity
5,QVQLVESGGGLVQAGGSLRLSCSASGSTFYPYAMGWYRQAPGKERELVAAISSGGSTSYADSVKGRFTISRDNAKNTVYLQMNSLKPEDTAVYYCNASSPGAVPVYDYDYWGQGTQVTVSS,low polyreactivity
6,QVQLVESGGGLVQAGGSLRLSCSASGYTFAWYAMGWYRQAPGKERELVAAITVSGGSTYYADSVKGRFTISRDNAKNTVYLQMNSLKPEDTAVYYCAADYAPLDLYQVSTVYSSGDYWGQGTQVTVSS,low polyreactivity
7,QVQLVESGGGLVQAGGSLRLSCSATGRIFVLYDMGWYRQAPGKERELVAGISGSGGRTYYADSVKGRFTISRDNAKNTVYLQMNSLKAEDTAVYYFNALGYYWYRPYVNSNGGYWGQGTLVTVSS,high polyreactivity
8,QVQLVESGGGLVQAGGSLRLSCSDSGSTFWLNAMGWYRQPPGKEREYVAAITWSSGSTYYADSVKGSFTISRDNAKNTVYLQMNSLKPEDTAVYYCNADYYFTSYEYEYWGQGTQVTVSS,low polyreactivity
9,QVQLVESGGGLVQAGGSLRLSCSSSGRIFLNSMGWYRQAPGKEREFVAAITRSADSTYYADSVKGRFTISRDNAKNTVYLQMNSLKPEDTAVYYCNKPFPYYPDGPNGYDYWGHGTQVTVSS,low polyreactivity
10,QVQLVESGGGLVQAGGSLRLSCTASGTIVPVYAMGWYRQAPGKERELVADITYTTGSTYYAVSVKGRFTISRENAKNSVYLQMNSLKPEDTAVYYCAKDFGFQSDSWGQGTQVTVSS,low polyreactivity
11,QVQLVESGGGLVQAGGSLRLSCVASGNIFVFYLMGWYRQAPGKERELVASISSTGNTYYADSVKGRFTISRDNAKNTVYLQMNSLKPEDTAVYYCAADSHQNVSGWLRWPRMDYWGQGTQVTVSS,low polyreactivity
12,QVQLVESGGGLVQAGGSLRLSCVASGRTFFRYAMGWYRQAPGKERELVAVITRGGSTYYADSVKGRFTISRDNAKNTVYLQMNSLKPEDTAVYYCNADGRVQRKYDYWGQGTQVTVSS,high polyreactivity
13,QVQLVESGGGLVQAGGSLRLSCVASGRTLNYNVMGWYRQAPGKERELVAAISWSGGSTYADSVKGRFTISRDNAKNTVYLQMNSLKPEDTAVYYCNKRFTTRVNRRPVYYWGQGTQVTVSS,low polyreactivity
14,QVQLVESGGGLVQAGGSLRLSCVASGSIFKQYAMGWYRQAPGKERELVAGISKTGGRTYYADSVKGRFTISRDNAKNTVYLQMNSLKPEDTAVYYCAAYFRSDYGYWGQGTQVTVSS,high polyreactivity
15,QVQLVESGGGLVQAGGSLRLSCVASGSIFRGNAMGWYRQAPGKERELVASISKGGGSTYYADSVKGRFIISRDNAKNTVYLQIHSLKPEDTAVYYCYKDYDRRDFYYWGLGTQVTVSS,low polyreactivity
16,QVQLVESGGGLVQAGGSLRLSFAASGFIFWNYPMGWYRQAPGKERELVAAISKRGGSTYYADSVKGRFTISRDNAKHNVYLQMNSLKPEDTAVYYCNAGRTYTALNGDYWGQGTQVTVSS,high polyreactivity
17,QVQLVESGGGLVQAGGSLRLSFAASGIIFSHNVMGWYRQAPGKERELVAAITYSGGSTYYADSVKGRFTISRDNAKNTVYLLMNSLKPEDTAVYYCNALGVSRRDYDYWGQGTQVTVSS,low polyreactivity
18,QVQLVESGGGLVQAGGSLRLSFAASGITFDSYAKGWYRQAPGKERELVATISRSGTTTYYADSVKGRFTISRDNAKNTVYLQMNSLKPEDTAVYYCNTLRAYWTYHFYGAVRDGYDYWGQGTQVTVSS,low polyreactivity
19,QVQLVESGGGLVQAGGSLRLSFAASGITFPYYAMGWYRQAPGKEREFVAAISSSGGSTYYADSVKGRFTISRDNAKKTVYLKMHCLKAEDTEVYYCAAGVYGRSSYSKPVLYEYWGQGTQVTVSS,high polyreactivity
20,QVQLVESGGGLVQAGGSLRLSFAASGLIFSYYAMVWYRQAPGKERELVAAISSSGGSTYYADSVKGRFTISRDYAKNTVYLQMNSLKPEDTAVYYCARKLTRRFYQYDYWGQGTQVTVSS,high polyreactivity
